# B1: library; numbered along this chain (parent)
# chain: MAAAAAAAAEQQSSNGPVKKSMREKAVERRSVNKEHNSNFKAGYIPIDEDRLHKTGLRGRKGNLAICVIILLFILAVINLIITLVIWAVIRIGPNGCDSMEFHESGLLRFKQVSDMGVIHPLYKSTVGGRRNENLVITGNNQPIVFQQGTTKLSVENNKTSITSDIGMQFFDPRTQNILFSTDYETHEFHLPSGVKSLNVQKASTERITSNATSDLNIKVDGRAIVRGNEGVFIMGKTIEFHMGGNMELKAENSIILNGSVMVSTTRLPSSSSGDQLGSGDWVRYKLCMCADGTLFKVQVTSQNMGCQISDNPCGNTH
# Variants of: B1
# Assay: SGCB cell-surface expression functional score (HA stain, bin4 vs bin1, normalised to synonymous) (log10 ratio); higher = more cell-surface SGCB (functional)
# Method in brief: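 Sorting and sequencing yield the functional score, defined as the log ratio of a variant's highest-bin frequency to its lowest-bin frequency, with the median taken over codons and replicate transductions. The libraries, codon-saturation sets of HA-tagged, YFP-fused human beta-sarcoglycan, went into HEK293 cells stably carrying alpha-, gamma- and delta-sarcoglycan by duplicate lentiviral transduction at MOI <0.1. Cells were stained on ice with Alexa Fluor 647 anti-HA, fixed and split into four 5% intensity bins, and synonymous variants were scaled per section to mean 0, SD 0.5.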
row,Variant,SGCB cell-surface expression functional score (log10)
1,MAAAAAAAAEQQSSNGPVKKSMREKAVERRSVNKEHNSNFKAGYIPIDEDRLHKTGLRGRKGNLAICVIILLFILAVINLIITLVIWAVIRIGPNGCDSMEFHESGLLRFKQVSDMGVIHPLYKSTVGGRRNENLVITGNNQPIVFQQGTTKLSVENNKTSITSDIGMQFFDPRTQNILFSTDYETAEFHLPSGVKSLNVQKASTERITSNATSDLNIKVDGRAIVRGNEGVFIMGKTIEFHMGGNMELKAENSIILNGSVMVSTTRLPSSSSGDQLGSGDWVRYKLCMCADGTLFKVQVTSQNMGCQISDNPCGNTH [H187A],-0.81
2,MAAAAAAAAEQQSSNGPVKKSMREKAVERRSVNKEHNSNFKAGYIPIDEDRLHKTGLRGRKGNLAICVIILLFILAVINLIITLVIWAVIRIGPNGCDSMEFHESGLLRFKQVSDMGVIHPLYKSTVGGRRNENLVITGNNQPIVFQQGTTKLSVENNKTSITSDIGMQFIDPRTQNILFSTDYETHEFHLPSGVKSLNVQKASTERITSNATSDLNIKVDGRAIVRGNEGVFIMGKTIEFHMGGNMELKAENSIILNGSVMVSTTRLPSSSSGDQLGSGDWVRYKLCMCADGTLFKVQVTSQNMGCQISDNPCGNTH [F171I],0.86
3,MAAAAAAAAEQQSSNGPVKKSMREKAVERRSVNKEHNSNFKAGYIPIDEDRLHKTGLRGRKGNLAICVIILLFILPVINLIITLVIWAVIRIGPNGCDSMEFHESGLLRFKQVSDMGVIHPLYKSTVGGRRNENLVITGNNQPIVFQQGTTKLSVENNKTSITSDIGMQFFDPRTQNILFSTDYETHEFHLPSGVKSLNVQKASTERITSNATSDLNIKVDGRAIVRGNEGVFIMGKTIEFHMGGNMELKAENSIILNGSVMVSTTRLPSSSSGDQLGSGDWVRYKLCMCADGTLFKVQVTSQNMGCQISDNPCGNTH [A76P],-0.1
4,MAAAAAAAAEQQSSNGPVKKSMREKAVERRSVNKEHNSNFKAGYIPIDEDRLIKTGLRGRKGNLAICVIILLFILAVINLIITLVIWAVIRIGPNGCDSMEFHESGLLRFKQVSDMGVIHPLYKSTVGGRRNENLVITGNNQPIVFQQGTTKLSVENNKTSITSDIGMQFFDPRTQNILFSTDYETHEFHLPSGVKSLNVQKASTERITSNATSDLNIKVDGRAIVRGNEGVFIMGKTIEFHMGGNMELKAENSIILNGSVMVSTTRLPSSSSGDQLGSGDWVRYKLCMCADGTLFKVQVTSQNMGCQISDNPCGNTH [H53I],0.12
5,MAAAAAAAAEQQSSNGPVKKSMREKAVERRSVNKEHNSNFKAGYIPIDEDRLHKTGLRGRKGNLAICVIILLFILAVINLIITLVIWAVIRIGPNGCDSMEFHESGLLRFKQVSDMGVIHPLYKSTVGGRRNENLVITGNNQPIVFQQGTTKLSVENNKTTITSDIGMQFFDPRTQNILFSTDYETHEFHLPSGVKSLNVQKASTERITSNATSDLNIKVDGRAIVRGNEGVFIMGKTIEFHMGGNMELKAENSIILNGSVMVSTTRLPSSSSGDQLGSGDWVRYKLCMCADGTLFKVQVTSQNMGCQISDNPCGNTH [S161T],0.3
6,MAAAAAAAAEQQSSNGPVKKSMREKAVERRSVNKEHNSNFKAGYIPIDEDRLHKTGLRGRKGNLAICVIILLFILAVINLIITLVIWAVIRIGPNGCDSMEFHESGLLRFKQVSDMGVIHPLYKSTVGGRRNENLVITGNNQPIVFQQGTTKLSVENNKTSITSDIGMQFFDPRTQNILFSTDYETHEFHLPSGVKSLNVQKASTERITSNATSDLNIKVDGRAIVRGNEGVFIMGKTIEFHMGGNMELKAENSIILNGSVMVSTTRLPSSSSGDQLGSGDWVRYKLCMCADGTLFKGQVTSQNMGCQISDNPCGNTH [V298G],-0.37
7,MACAAAAAAEQQSSNGPVKKSMREKAVERRSVNKEHNSNFKAGYIPIDEDRLHKTGLRGRKGNLAICVIILLFILAVINLIITLVIWAVIRIGPNGCDSMEFHESGLLRFKQVSDMGVIHPLYKSTVGGRRNENLVITGNNQPIVFQQGTTKLSVENNKTSITSDIGMQFFDPRTQNILFSTDYETHEFHLPSGVKSLNVQKASTERITSNATSDLNIKVDGRAIVRGNEGVFIMGKTIEFHMGGNMELKAENSIILNGSVMVSTTRLPSSSSGDQLGSGDWVRYKLCMCADGTLFKVQVTSQNMGCQISDNPCGNTH [A3C],-0.24
8,MAAAAAAAAEQQSSNGPVKKSMREKAVERRSVNKEHNSNFKAGYIPIDEDRLHKTGLRGRKGNLAICVFILLFILAVINLIITLVIWAVIRIGPNGCDSMEFHESGLLRFKQVSDMGVIHPLYKSTVGGRRNENLVITGNNQPIVFQQGTTKLSVENNKTSITSDIGMQFFDPRTQNILFSTDYETHEFHLPSGVKSLNVQKASTERITSNATSDLNIKVDGRAIVRGNEGVFIMGKTIEFHMGGNMELKAENSIILNGSVMVSTTRLPSSSSGDQLGSGDWVRYKLCMCADGTLFKVQVTSQNMGCQISDNPCGNTH [I69F],0.52
9,MAAAAAAAAEQQSSNGPVKKSMREKAVERRSVNKEHNSNFKAGYIPIDEDRLHKTGLRGRKGNLAICVIILLFILAVINLIITLVIWAVIRIGPNGCDSMEFHESGLLRFKQVSDMGVIHPLYKSTVGGRRNENLVITGNNQPIVFQQGTTKLSVENNKTSITSDIGMQFFDPRTQNILFSTDYETHEFHLPSGVKSLNVQKASTERITSNATSDLNIKVDGRAIVRGNEGVFIMGKTIEFHMGGNMELKAENSIILNGSVMVSTTRLPSSSSGDQLGSGDWVRYKLCMCADGTLFKVQVTSQNMMCQISDNPCGNTH [G306M],-1.83
10,MAAAAAAAAEQQSSNGPVKKSMREKAVERRSVNKEHNSNFKAGYIPIDEDRLHKTGLRGRKGNLAICVIILLFILAVINLIITLVIWAVIRIGPNGCDSMEFHESGLLRFKQVSDMGVIHPLYKSTVGGRRNENLVITGNNQPIVFQQGTTKLSVENNKTSITSDIGMQFFDPRTQNILFSTDYETHEFHLPSGVKSLNVQKASTERITSNATSDLNIKVDGRAIVRGNEGVFIMGKTIEFHMGGNMELKAENSIILNGSVMVSTTRLPSSSSGDQLGSGDWVRYKLCMCQDGTLFKVQVTSQNMGCQISDNPCGNTH [A291Q],-0.72
